Target: T1, human BCMA (full-length, on cells) (human, UniProt Q02223 1-184)
T1 sequence: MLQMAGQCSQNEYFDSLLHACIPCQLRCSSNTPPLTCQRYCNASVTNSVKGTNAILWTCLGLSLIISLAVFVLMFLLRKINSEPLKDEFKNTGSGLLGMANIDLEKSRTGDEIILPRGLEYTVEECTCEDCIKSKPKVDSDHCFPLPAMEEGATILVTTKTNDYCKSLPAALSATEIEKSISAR
Test: cell-based or functional assay

B1: Inno-B (Hel_sp34.24_497_triFab) (trispecific antibody, human IgG1, kappa, lambda, L234A L235A)
heavy 1: not shown
light 1: not shown
heavy 2: not shown
light 2: DIQMTQSPSSLSASVGDRVTITCRASQSISRYLNWYQDKPGKAPKLLIYAASSLQSGVPSRFSGSGSGTDFTLTISSLQPEDFATYYCQQKYFDITFGGGTKVEIKRTVAAPSVFIFPPSDECLKSGTASVVCLLNNFYPREAKVQWKVDNALQSGNSQESVTEQDSKDSTYSLSSTLTLSKADYEKHKVYACEVTHQGLSSPVTKSFNRGES
light 3: QAVVTQEPSLTVSPGGTVTLTCRSSTGAVTTSNYANWVQKKPGQAPRGLIGGTNKRAPGVPARFSGSLLGDKAALTLLGAQPEDEAEYYCALWYSNLWVFGQGTKLTVLGQPKAAPSVTLFPPSSEELQANKATLVCLISDFYPGAVTVAWKADSSPVKAGVETTTPSKQSNNKYAASSYLSLTPEQWKSHRSYSCQVTHEGSTVEKTVAPTECS
EC50 of PBMC killing of L363 cells: 0.192 nM
